The record followed here is US12590147 (OBLIQUE THERAPEUTICS, dated 2026).

Experiment [1] has as its target T1, human TRPV1 (transient receptor potential vanilloid type 1) (human, UniProt Q8NER1 1-839). The experiment is described as follows: cell-based or functional assay.
Experiment [2] has as its target T1, human TRPV1 (transient receptor …). The experiment is described as follows: FACS on CHO TRPV1 cells, purified antibody. The method, then: For monoclonal antibody preparations for FACS analysis, CHO TRPV1 cells, HEK 293 cells or CHO S cells were incubated with 50 μl antibody preparation (serum, hybridoma supernatant or purified monoclonal antibody or control) for 40 min at room temperature, followed by 30 min incubation at room temperature with 100 μl secondary antibody (anti-mouse IgG, conjugated to fluorescent probe). Binding was assessed by measurement of fluorescence signal from cells and reported as mean fluorescence intensity (MFI). CHO TRPV1 cells are adherent Chinese hamster ovary (CHO) cells with a tetracycline regulated expression system (T-REx) of hTRPV1 (human TRPV1) as described elsewhere. Doxycycline was used to induce expression of TRPV1. CHO S cells and HEK 293 cells were used as negative control cells. CHO S cells are a high-density suspension-adapted cell type used as a tool for high level expression of recombinant protein, with little or no basal expression of TRPV1. […]
In the study described in the present example, 16 mouse monoclonal antibodies against human TRPV1, 32C8-1, 33C9-1, 34C11-1, 40B10-1, 41B5-1, 43D6-1, 44E8-1, 46B7-1, 46D9-1, 12C9-1, 12G6-1, 15D8-1, 16F1-1, 17E11-1, 17E9-1, 18E10-1, were produced using the hybridoma technology. Specificity of binding to hTRPV1 was determined using FACS, employing a CHO cell line with inducible hTRPV1 expression. […]

Experiment [3] shares this target. The experiment is described as follows: FACS on CHO cells with induced hTRPV1 expression. The method, then:
For monoclonal antibody preparations, CHO-TRPV1 cells were incubated with 50 μl antibody preparation (serum, hybridoma supernatant or purified monoclonal antibody) for 30 min at 4° C., followed by 30 min incubation at 4° C. with 50 µl secondary antibody (anti-mouse IgG, conjugated to fluorescent probe). The negative control was secondary antibody only (anti-mouse IgG at […] in the 50 µL sample). Binding was assessed by measurement of fluorescence signal from cells and reported as mean fluorescence intensity (MFI). CHO-TRPV1 cells are adherent Chinese hamster ovary (CHO) cells with a tetracycline regulated expression system (T-REx) of hTRPV1 (human TRPV1) as described elsewhere. Doxycycline was used to induce expression of TRPV1 (denoted +TRPV1). Non-induced cells are denoted –TRPV1.
Three examples of mouse monoclonal antibodies against human TRPV1, OT-Ab1, OT-Ab2 and OT-Ab3, were produced using the hybridoma technology. Specificity of binding to hTRPV1 was determined using FACS, employing a CHO cell line with inducible hTRPV1 expression. OT-Ab1, OT-Ab2 and OT-Ab3 bound to hTRPV1-expressing cells but not to non-hTRPV1-expressing cells indicating strongly specific binding to hTRPV1 (FIG. 5).

Numbering of substitutions follows the chain as printed.

T1 sequence (Q8NER1 whole entry): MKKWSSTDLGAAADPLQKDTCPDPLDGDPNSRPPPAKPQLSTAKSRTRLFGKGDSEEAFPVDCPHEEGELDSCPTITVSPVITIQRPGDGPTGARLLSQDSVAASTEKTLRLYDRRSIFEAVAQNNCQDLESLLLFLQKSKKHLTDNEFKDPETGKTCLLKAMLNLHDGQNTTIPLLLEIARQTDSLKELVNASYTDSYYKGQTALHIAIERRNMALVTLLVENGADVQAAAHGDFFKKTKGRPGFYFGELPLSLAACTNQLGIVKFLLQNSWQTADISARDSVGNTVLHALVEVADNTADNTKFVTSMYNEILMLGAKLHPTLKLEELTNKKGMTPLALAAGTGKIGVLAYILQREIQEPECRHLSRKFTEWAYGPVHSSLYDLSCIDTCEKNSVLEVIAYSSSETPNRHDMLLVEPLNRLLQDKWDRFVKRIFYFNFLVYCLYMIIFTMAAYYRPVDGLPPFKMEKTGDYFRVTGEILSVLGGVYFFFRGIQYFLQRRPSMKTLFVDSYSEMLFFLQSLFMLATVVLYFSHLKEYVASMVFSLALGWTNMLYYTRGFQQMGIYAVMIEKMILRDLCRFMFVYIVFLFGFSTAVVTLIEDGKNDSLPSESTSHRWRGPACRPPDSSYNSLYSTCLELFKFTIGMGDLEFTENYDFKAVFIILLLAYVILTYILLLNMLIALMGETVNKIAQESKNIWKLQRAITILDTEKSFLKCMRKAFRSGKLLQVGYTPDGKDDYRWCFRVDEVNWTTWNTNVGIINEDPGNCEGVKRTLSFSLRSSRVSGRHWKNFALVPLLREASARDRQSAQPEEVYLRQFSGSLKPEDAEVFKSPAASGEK

B1: 16F1-1 (antibody, IgG2a, V domains shown)
VH: EVQLVESGGGLVQPKGSLKLSCAASGFTFNTYAMHWVRQAPGKGLEWVARIRSKSSNYATYYADSVKDRFTISRDDSQSMVYLQMNNLKTEDTAMYYCVRKGDGYDGWFAYWGQGTLVTVSA
VL: DIQMTQSPASLSASVGETVTITCRPSGNIHNYLVWYQQKQGKSPQVLVYNSKTLADGVPSRFSGSGSGTQYSLKINSLQPEDFGTYYCQHFWSTPLTFGAGTKLELK
On to B1, for which the “IC50 of inhibition of TRPV1-mediated capsaicin-induced Ca2+ uptake (FLIPR)” value (“IC50 of inhibition … (FLIPR)” for short) in experiment [1] is roughly 215 nM.

B2: 41B5-1 (antibody, V domains shown)
VH: DVQLQESGPGLVKPSQSLSLTCTVTDYSLTSDYAWNWIRQFPGNKLEWMGYITYSGYTNFNPSLRSRISITRDTSKTQFFLQLNSVTAEDTATYYCVRSTTYFDYWGQGTTLTVSS
VL: DVLMTQTPLSLPVSLGDQASISCRSSQSIVHSDGNTYLEWYLQKPGQSPKLLIYKVSNRFSGVPDRFSGSGSGTDFTLKINRVEAEDLGIYYCFQGSHVPPTFGGGTKLEIK
As for B2, the “IC50 of inhibition … (FLIPR)” value in experiment [1] is roughly 170 nM.

B3: 12G6-1 (antibody, IgG1, V domains shown)
VH: EVQLVESGGDLVNPGGSLKLSCAASGFTISNYGMSWVRQTPDKRLEWVAIIIRDGGYTYYPDSVKGRFTISRDSAKNTLYLQMSSLKSEDTAMYYCARHEYYFDFWGQGTTLTVSS
VL: B2 VL with S28T, V30L, N81S, I90V, F94S, V99F, L109V
notes: mouse monoclonal, IgG1/kappa
As to B3, the binding result in experiment [2] is on record as “binds”.

B4: 46B7-1 (antibody, V domains shown)
VH: B2 VH with F60Y, R65K, I68V, A88T, V97A, T101A
VL: B2 VL with I29V, V30I, N81S, I90V
In the case of B4, the “IC50 of inhibition … (FLIPR)” value in experiment [1] was roughly 200 nM.

B5: 17E11-1 (antibody, IgG1, V domains shown)
VH: EVQLLQSVAELVRPGASVKLSCTASGFNIKNTFIHWLKQRPEQGLEWIGKIDPANGNIRCAPKFQGKATITADTSSNTAYLQLSSLTSGDTAIYYCGRGTMLVGHFYWYFDVWGTGTTVTVSS
VL: DIVMSQSPSSLAVSVGEKITMSCKSSQSLLYSSNQKNYLAWYQQKPGQSPKLLIYWASTRESGVPDRFSGSGSGTDFTLTISSVKTEDLAIFYCQQYYYYPPTFGAGTKLELR
Turning to B5, the “IC50 of inhibition … (FLIPR)” value in experiment [1] is roughly 230 nM.

B6: 17E9-1 (antibody, IgG2b, V domains shown)
VH: B5 VH
VL: B5 VL
With B6, the “IC50 of inhibition … (FLIPR)” value in experiment [1] is roughly 400 nM.

B7: OT-Ab1 (antibody, IgG2b, V domains shown)
VH: EVQLQQSGAELVKPGASVKLSCTASGFNIKDTYIHWVKQRPEQGLEWIGRIDPANGNTRYDPKFQGKATITADTSSNTAYLQLSSLTSEDTAVYYCAKVSGDRRFYWYFDVWGAGTTVTVSS
VL: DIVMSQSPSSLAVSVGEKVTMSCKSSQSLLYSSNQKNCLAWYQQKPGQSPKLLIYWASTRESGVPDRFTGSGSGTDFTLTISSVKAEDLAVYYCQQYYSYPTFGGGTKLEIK
notes: mouse monoclonal, IgG2b/kappa
B7: the binding result in experiment [3] is “binds”.

B8: OT-Ab2 (antibody, IgG1, V domains shown)
VH: EVKLLESGGGLVQPGGSLKLSCAASGFDFRRYWMSWVRQAPGKGLEWIGEINPDSSTINYTPSLKDEFIISRDNAKNTLYLQMSKVRSEDTVLYYCSRGGDYWGQGTSVTVSS
VL: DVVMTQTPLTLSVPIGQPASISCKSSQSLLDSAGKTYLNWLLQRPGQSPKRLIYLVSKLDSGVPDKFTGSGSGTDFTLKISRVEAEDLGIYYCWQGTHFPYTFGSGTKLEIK
notes: mouse monoclonal, IgG1/kappa
In the case of B8, the binding result in experiment [3] is listed as “binds”.

B9: OT-Ab3 (antibody, IgG1, V domains shown)
VH: B8 VH with K3N
VL: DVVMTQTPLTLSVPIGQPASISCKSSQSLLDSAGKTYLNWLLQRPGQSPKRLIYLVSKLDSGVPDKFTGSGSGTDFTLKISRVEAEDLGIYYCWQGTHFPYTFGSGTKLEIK
notes: mouse monoclonal, IgG1/kappa
Turning to B9, the binding result in experiment [3] is given as “binds”.

B10: 15D8-1 (antibody, V domains shown)
VH: DVQLVESGGGLVQPGGSRKLSCAASGFTFSSFGMHWVRQAPEKGLEWVAYISSGSSTIYYADTVKGRFTISRDNPKNTLFLQMTSLRSEDTAMYYCARRGNAMDYWGQGTSVTVSS
VL: NIMMTQSPSSLAVSAGEKVTMSCKSSQSVLYSSNQKNYLAWYQQKPGQSPKLLIYWASTRESGVPDRFTGSGSGTDFTLTISSVQAEDLAVYYCHQYFSSWTFGGGTKLEIK
Take B10: the “IC50 of inhibition … (FLIPR)” value in experiment [1] was roughly 70 nM.

B11: 12C9-1 (antibody, IgG2b, V domains shown)
VH: EVQLQQSGPELVKPGTSVKISCKASGYTFTGYYMNWVKQSHGKSLEWIGDINPNNGGTDYNRKFKGKATLTVDKSSSTAYMEVRSLTSEDSAVYYCAKDFAVWGTGTTVTVSS
VL: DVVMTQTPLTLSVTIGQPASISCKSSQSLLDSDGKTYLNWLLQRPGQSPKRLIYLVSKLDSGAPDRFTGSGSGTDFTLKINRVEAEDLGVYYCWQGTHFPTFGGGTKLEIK
notes: mouse monoclonal, IgG2b/kappa
Consider B11, for which the binding result in experiment [2] is “binds”.
